Measured values: the RNAGym collection of RNA variant scans (doi:10.1073/pnas.2313332121)

B1: TPR t1 (parent)
chain: GACCAAUCUGCCCUCAGAGCUCGAGAACAUCUUCGGAUGCAGAGGAGGCAGGCUUCGGUGGCGCGAUAGCGCCAACGUCCUCAACCUCCAAUGCAUCCCACCACAUGAUGAUGCCUGAAGAGCCUUGGUUUUUUG

Variants of: B1
Experiment: polymerase ribozyme fitness, log enrichment relative to wild type (log ratio); higher = more active; in vitro selection for triplet polymerase activity
Outline: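 Mutant libraries of each subunit of a heterodimeric triplet polymerase ribozyme were built by PCR and transcribed. Each library went through one round of in vitro selection in triplicate: annealing with biotinylated primer, partner subunit and triplets, frozen incubation at −7 °C, gel excision of extended constructs, streptavidin-bead capture and RT-PCR. Input and output libraries were Illumina-sequenced; only genotypes with ≥10 input reads and ≥1 read per output were kept. Fitness is log2(genotype enrichment/wild-type enrichment), using inverse-variance-weighted replicate averages.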

| Variant | polymerase ribozyme fitness (log ratio) |
| --- | --- |
| C20U C85U | -2.85 |
| C20U G47C A75U A91U | -4.77 |
| U21A G36C G113U U133A | -2.25 |
| C20U U21G C49A C98U | -4.2 |
| C20U C101U | -1.97 |
| C20U A27U C64U G113A | -3.6 |
| C20U C115U | -1.73 |
| C20U A75G | -0.924 |
| U21A G51A G57U | -2.59 |
| C20G A27G G120A | -5.6 |
| C20U C76G C89U C104A C115U | -5.63 |
| C20U U78C | -1.11 |
| C20U A24U G60C G63C G69A U81G C98G U109G | -6.52 |
| U21A A95G G117U | -1.3 |
| C20U U112A G120A | -0.897 |
| C20A G42C | -4.12 |
| C20A G48U U55C | -3.81 |
| C20G U54G C73A C89G A100C | -5.53 |
| C20U A27G | -3.07 |
| C20G A119U | -4.11 |
| C20A U129C | -3.02 |

| Variant | polymerase ribozyme fitness (log ratio) |
| --- | --- |
| C20G G135U | -4.02 |
| C20A G47A | -3.54 |
| C20U G45U A100U | -3.67 |
| U21A A46G C114G | -3.92 |
| C20U G113U | -0.99 |
| C20G U109G | -3.38 |
| C20U G52A G120A | -1.57 |
| C20G C56G | -4.45 |
| C20U C62A G93A U129A | -4.93 |
| C20U U92A | -4.08 |
| C20G A41U C56G G63C A95U A119U | -5.15 |
| C20U G45C | -3.07 |
| C20G A46U A118G | -5.92 |
| C20A G58C C72U C76U | -3.69 |
| C20U A43C G47A C82G A95U A105C U112A | -4.61 |
| C20G G61A A90C A95U | -3.88 |
| U21A G42U C98U C104U C114G C124A | -5.22 |
| U21A G44A G113C | -3.04 |
| C20U A95G | -1.47 |
| C20U A29C G120A | -3.64 |
| C20G C124G | -3.06 |

| Variant | polymerase ribozyme fitness (log ratio) |
| --- | --- |
| C20U G113U G120U | -3.12 |
| C20U C56U G93A C114G U129G | -2.17 |
| U21A C53U A74C | -0.636 |
| C20U U54A | -0.906 |
| C20U G93A C101G G113C | -4.09 |
| C20U U96G C123G U129A | -1.64 |
| C20U G117A | -2.72 |
| C20G C123U U126A | -3.94 |
| C20U A90U C123U | -1.5 |
| C20U G35A G61A A111C | -5.53 |
| U21A A50G A95G A105C | -3.34 |
| C20A U54G C94U | -3.21 |
| C20U C49U G71C A90U G117U | -6.09 |
| C20U C73G G113U U130A U131C | -3.02 |
| C20U C62U C94U | -2.47 |
| C20U G52A G60A U96A | -3.48 |
| C20G C31U G35U U109G | -4.7 |
| C20G G120C | -2.75 |
| C20U U33G C123U | -6.12 |
| U21A C56U C62U C85G | -3.76 |
| C20A U54G C64G G113C | -7.15 |

| Variant | polymerase ribozyme fitness (log ratio) |
| --- | --- |
| C20U A50U U55G C76U U112C G127A | -4.02 |
| U21A U59C C123A G128C | -2.93 |
| C20A U112A | 0.09 |
| U21A A43U | -1.83 |
| U21A A74C C98A C114G U133G | -7.51 |
| C20G C73A C115G | -5.35 |
| C20U C53A A111G C114U | -7.62 |
| C20U C73A A95U U106A G122A | -4.57 |
| C20U C56G G63C | -5.5 |
| C20A G60C | -3.33 |
| U21A G52A A75U C115A C124A | 1.07 |
| C20A G52C C72A | -2.79 |
| C20G U96G | -3.91 |
| U21A A43U C72U U129A | -3.56 |
| C20A G110U | -3.99 |
| U21A A41U C70U A95U | -4.21 |
| U21A G63U | -1.92 |
| C20G G44A | -5.14 |
| C20G U32G A90U G93U U109C | -4.13 |
| C20A G127C | -2.94 |
